# Data reported in article PMC13397619.
# B1: NLV3 TCR beta chain (CDR3β only) (parent)
# chain: ASSPTGGSPSPLH
# Variants of: B1
# Assay: T-Switch: Jurkat TCRβ−/− cells expressing a CDR3 saturation-mutagenesis library, stained with two peptide-HLA-A*02:01 tetramers (original and novel peptide) plus anti-CD3, FACS-sorted into four gates, gDNA sequenced
# Details: tetramers 1 µg/mL, 30 min on ice, SP, DP and SW gates expanded about 10 days between rounds ('two to three rounds of selection' in the Methods), unresolved parent, parent is a CDR3 fragment, scale: fold enrichment, numbering: sequential-on-construct, sequence starts at 1
# [1] = with both tetramers (double-negative gate, binds neither): HLA-A*02:01 with … and with …, gate DN: OPPOSITE: higher = more of the variant in the gate that binds neither peptide = LESS binding (or no expression; inferred). Fold enrichment of the CDR3 variant in one FACS gate of a two-tetram
# [2] = with both tetramers (double-positive gate): HLA-A*02:01 with … and with …, gate DP: higher = more of the variant in the gate that binds both peptides. Fold enrichment of the CDR3 variant in one FACS gate of a two-tetramer stain. SP/DP/SW gates were expanded and re-sorted bef
Variant,enrichment [1],enrichment [2]
[…] (CDR3 as printed); S3I derived by comparing it with the table's wild-type CDR3 ASSPTGGSPSPLH,1.21,0
[…] (CDR3 as printed); G7L derived by comparing it with the table's wild-type CDR3 ASSPTGGSPSPLH,1.32,0
[…] (CDR3 as printed); P4R derived by comparing it with the table's wild-type CDR3 ASSPTGGSPSPLH,0.618,0
[…] (CDR3 as printed); A1T derived by comparing it with the table's wild-type CDR3 ASSPTGGSPSPLH,0.774,0
[…] (CDR3 as printed); P11V derived by comparing it with the table's wild-type CDR3 ASSPTGGSPSPLH,1.05,0
[…] (CDR3 as printed); S2E derived by comparing it with the table's wild-type CDR3 ASSPTGGSPSPLH,0.993,0
[…] (CDR3 as printed); S8E derived by comparing it with the table's wild-type CDR3 ASSPTGGSPSPLH,1.16,0
[…] (CDR3 as printed); S10A derived by comparing it with the table's wild-type CDR3 ASSPTGGSPSPLH,0.624,0
[…] (CDR3 as printed); S3E derived by comparing it with the table's wild-type CDR3 ASSPTGGSPSPLH,0.814,0
[…] (CDR3 as printed); G6C derived by comparing it with the table's wild-type CDR3 ASSPTGGSPSPLH,0.841,0
[…] (CDR3 as printed); P11M derived by comparing it with the table's wild-type CDR3 ASSPTGGSPSPLH,0.318,0
[…] (CDR3 as printed); H13Y derived by comparing it with the table's wild-type CDR3 ASSPTGGSPSPLH,0.87,0
[…] (CDR3 as printed); P4L derived by comparing it with the table's wild-type CDR3 ASSPTGGSPSPLH,0.459,0
[…] (CDR3 as printed); G6L derived by comparing it with the table's wild-type CDR3 ASSPTGGSPSPLH,0.967,0
[…] (CDR3 as printed); S8F derived by comparing it with the table's wild-type CDR3 ASSPTGGSPSPLH,0.97,0
[…] (CDR3 as printed); P4Q derived by comparing it with the table's wild-type CDR3 ASSPTGGSPSPLH,1.2,0
[…] (CDR3 as printed); A1M derived by comparing it with the table's wild-type CDR3 ASSPTGGSPSPLH,1.12,0
[…] (CDR3 as printed); P4I derived by comparing it with the table's wild-type CDR3 ASSPTGGSPSPLH,0.965,0
[…] (CDR3 as printed); S3Q derived by comparing it with the table's wild-type CDR3 ASSPTGGSPSPLH,1.09,0
[…] (CDR3 as printed); P9Y derived by comparing it with the table's wild-type CDR3 ASSPTGGSPSPLH,0.562,0

Variant,enrichment [1],enrichment [2]
[…] (CDR3 as printed); T5F derived by comparing it with the table's wild-type CDR3 ASSPTGGSPSPLH,0.464,0
[…] (CDR3 as printed); P11C derived by comparing it with the table's wild-type CDR3 ASSPTGGSPSPLH,0.758,0
[…] (CDR3 as printed); A1D derived by comparing it with the table's wild-type CDR3 ASSPTGGSPSPLH,0.881,0
[…] (CDR3 as printed); S3T derived by comparing it with the table's wild-type CDR3 ASSPTGGSPSPLH,0.779,0
[…] (CDR3 as printed); G6H derived by comparing it with the table's wild-type CDR3 ASSPTGGSPSPLH,1.05,0
[…] (CDR3 as printed); A1F derived by comparing it with the table's wild-type CDR3 ASSPTGGSPSPLH,0.897,0
[…] (CDR3 as printed); G7M derived by comparing it with the table's wild-type CDR3 ASSPTGGSPSPLH,0.978,0
[…] (CDR3 as printed); S2G derived by comparing it with the table's wild-type CDR3 ASSPTGGSPSPLH,0.981,0
[…] (CDR3 as printed); H13Q derived by comparing it with the table's wild-type CDR3 ASSPTGGSPSPLH,0.592,0
[…] (CDR3 as printed); G6Q derived by comparing it with the table's wild-type CDR3 ASSPTGGSPSPLH,1.2,0
[…] (CDR3 as printed); G7S derived by comparing it with the table's wild-type CDR3 ASSPTGGSPSPLH,1.32,0
[…] (CDR3 as printed); H13I derived by comparing it with the table's wild-type CDR3 ASSPTGGSPSPLH,0.602,0
[…] (CDR3 as printed); S10R derived by comparing it with the table's wild-type CDR3 ASSPTGGSPSPLH,1.17,0
[…] (CDR3 as printed); T5E derived by comparing it with the table's wild-type CDR3 ASSPTGGSPSPLH,0.994,0
[…] (CDR3 as printed); L12E derived by comparing it with the table's wild-type CDR3 ASSPTGGSPSPLH,1.1,0
[…] (CDR3 as printed); P4A derived by comparing it with the table's wild-type CDR3 ASSPTGGSPSPLH,0.738,0
[…] (CDR3 as printed); G7R derived by comparing it with the table's wild-type CDR3 ASSPTGGSPSPLH,1.17,0
[…] (CDR3 as printed); S10L derived by comparing it with the table's wild-type CDR3 ASSPTGGSPSPLH,0.468,0
[…] (CDR3 as printed); A1V derived by comparing it with the table's wild-type CDR3 ASSPTGGSPSPLH,0.797,0
[…] (CDR3 as printed); L12R derived by comparing it with the table's wild-type CDR3 ASSPTGGSPSPLH,0.619,0

Variant,enrichment [1],enrichment [2]
[…] (CDR3 as printed); G6I derived by comparing it with the table's wild-type CDR3 ASSPTGGSPSPLH,1.08,0
[…] (CDR3 as printed); P4G derived by comparing it with the table's wild-type CDR3 ASSPTGGSPSPLH,0.753,0
[…] (CDR3 as printed); S8Y derived by comparing it with the table's wild-type CDR3 ASSPTGGSPSPLH,0.351,0
[…] (CDR3 as printed); P11N derived by comparing it with the table's wild-type CDR3 ASSPTGGSPSPLH,1.51,0
[…] (CDR3 as printed); P9K derived by comparing it with the table's wild-type CDR3 ASSPTGGSPSPLH,0.805,0
[…] (CDR3 as printed); S8T derived by comparing it with the table's wild-type CDR3 ASSPTGGSPSPLH,1.42,0
[…] (CDR3 as printed); P11H derived by comparing it with the table's wild-type CDR3 ASSPTGGSPSPLH,1.37,0
[…] (CDR3 as printed); S3P derived by comparing it with the table's wild-type CDR3 ASSPTGGSPSPLH,0.64,0
[…] (CDR3 as printed); P9S derived by comparing it with the table's wild-type CDR3 ASSPTGGSPSPLH,0.771,0
[…] (CDR3 as printed); L12Q derived by comparing it with the table's wild-type CDR3 ASSPTGGSPSPLH,0.615,0
[…] (CDR3 as printed); L12Y derived by comparing it with the table's wild-type CDR3 ASSPTGGSPSPLH,1.11,0
[…] (CDR3 as printed); H13D derived by comparing it with the table's wild-type CDR3 ASSPTGGSPSPLH,0.745,0
[…] (CDR3 as printed); S10D derived by comparing it with the table's wild-type CDR3 ASSPTGGSPSPLH,0.754,0
[…] (CDR3 as printed); S2Q derived by comparing it with the table's wild-type CDR3 ASSPTGGSPSPLH,0.653,0
[…] (CDR3 as printed); G7T derived by comparing it with the table's wild-type CDR3 ASSPTGGSPSPLH,0.754,0
[…] (CDR3 as printed); S3H derived by comparing it with the table's wild-type CDR3 ASSPTGGSPSPLH,0.931,0
[…] (CDR3 as printed); A1N derived by comparing it with the table's wild-type CDR3 ASSPTGGSPSPLH,1.07,0
[…] (CDR3 as printed); G6Y derived by comparing it with the table's wild-type CDR3 ASSPTGGSPSPLH,0.661,0
